Measured values reported in paper PMC4692385, “Identification of Thyroid Hormones and Functional Characterization of Thyroid Hormone Receptor in the Pacific Oyster Crassostrea gigas Provide Insight into Evolution of the Thyroid Hormone System”.

B1: DR3 (dsDNA)
DNA 1: CCGTAAGGTCACAGAGGTCACTCG
DNA 2: CGAGTGACCTCTGTGACCTTACGG
B2: DR1 (dsDNA)
DNA 1: CCGTAAGGTCACAGGTCACTCG
DNA 2: CGAGTGACCTGTGACCTTACGG
B3: DR5 (dsDNA)
DNA 1: CCGTAAGGTCACCAGGAGGTCACTCG
DNA 2: CGAGTGACCTCCTGGTGACCTTACGG
B4: DR2 (dsDNA)
DNA 1: CCGTAAGGTCACAAGGTCACTCG
DNA 2: CGAGTGACCTTGTGACCTTACGG
B5: DR0 (dsDNA)
DNA 1: CCGTAAGGTCAAGGTCACTCG
DNA 2: CGAGTGACCTTGACCTTACGG
B6: CgDR5 (dsDNA)
DNA 1: GTCCGTGATCACGGGTAGGTCAAACTG
DNA 2: CAGTTTGACCTACCCGTGATCACGGAC
B7: DR4 (dsDNA)
DNA 1: CCGTAAGGTCACAGGAGGTCACTCG
DNA 2: CGAGTGACCTCCTGTGACCTTACGG

Target: rCgTR (Crassostrea gigas, UniProt A0A0F6V015 1-479)
Sequence (A0A0F6V015 entry or part of it): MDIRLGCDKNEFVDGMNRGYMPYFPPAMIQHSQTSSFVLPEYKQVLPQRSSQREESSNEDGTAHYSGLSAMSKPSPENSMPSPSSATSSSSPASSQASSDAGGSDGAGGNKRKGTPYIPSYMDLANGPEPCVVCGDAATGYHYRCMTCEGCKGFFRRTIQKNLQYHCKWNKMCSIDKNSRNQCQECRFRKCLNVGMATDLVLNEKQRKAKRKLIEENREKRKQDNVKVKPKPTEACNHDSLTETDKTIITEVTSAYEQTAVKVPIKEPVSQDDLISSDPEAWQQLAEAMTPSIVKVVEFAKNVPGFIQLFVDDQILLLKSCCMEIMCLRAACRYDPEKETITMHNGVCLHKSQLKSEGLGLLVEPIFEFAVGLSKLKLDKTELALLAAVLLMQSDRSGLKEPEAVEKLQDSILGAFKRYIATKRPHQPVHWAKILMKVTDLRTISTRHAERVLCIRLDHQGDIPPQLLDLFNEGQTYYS
Test: EMSA; no ligand; LightShift Chemiluminescent EMSA kit (Pierce), manufacturer's instructions; buffer, salt, pH and temperature not stated; 100-fold cold probe competition; anti-His supershift
Settings: protein: recombinant, tags: pET30a, label: biotin, blunt

Binder | binding result
B1 | binds
B2 | binds
B3 | binds
B4 | binds
B5 | binds
B6 | binds
B7 | binds

Target: rCgTR1-240 (Crassostrea gigas, UniProt A0A0F6V015 1-240)
Sequence (A0A0F6V015 entry or part of it): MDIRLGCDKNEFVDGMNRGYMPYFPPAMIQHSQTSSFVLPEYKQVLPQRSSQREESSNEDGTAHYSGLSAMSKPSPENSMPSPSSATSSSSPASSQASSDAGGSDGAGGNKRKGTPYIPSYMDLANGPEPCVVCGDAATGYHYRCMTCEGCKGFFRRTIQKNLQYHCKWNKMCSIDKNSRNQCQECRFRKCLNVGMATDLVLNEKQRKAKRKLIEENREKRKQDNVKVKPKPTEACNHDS
Test: EMSA; no ligand; homodimer and monomer bands; LightShift Chemiluminescent EMSA kit (Pierce), manufacturer's instructions; buffer, salt, pH and temperature not stated; 100-fold cold probe competition; anti-His supershift
Settings: protein: recombinant, tags: pET30a, label: biotin, blunt

Binder | binding result
B4 | binds
